In PMC3532599, “Structural and Functional Integration of the PLCγ Interaction Domains Critical for Regulatory Mechanisms and Signaling Deregulation” (Structure(London, England:1993), 2012):

T1: PLCγ1 cSH2 domain, wild type (human)
T1 sequence (P19174 whole entry, looked up): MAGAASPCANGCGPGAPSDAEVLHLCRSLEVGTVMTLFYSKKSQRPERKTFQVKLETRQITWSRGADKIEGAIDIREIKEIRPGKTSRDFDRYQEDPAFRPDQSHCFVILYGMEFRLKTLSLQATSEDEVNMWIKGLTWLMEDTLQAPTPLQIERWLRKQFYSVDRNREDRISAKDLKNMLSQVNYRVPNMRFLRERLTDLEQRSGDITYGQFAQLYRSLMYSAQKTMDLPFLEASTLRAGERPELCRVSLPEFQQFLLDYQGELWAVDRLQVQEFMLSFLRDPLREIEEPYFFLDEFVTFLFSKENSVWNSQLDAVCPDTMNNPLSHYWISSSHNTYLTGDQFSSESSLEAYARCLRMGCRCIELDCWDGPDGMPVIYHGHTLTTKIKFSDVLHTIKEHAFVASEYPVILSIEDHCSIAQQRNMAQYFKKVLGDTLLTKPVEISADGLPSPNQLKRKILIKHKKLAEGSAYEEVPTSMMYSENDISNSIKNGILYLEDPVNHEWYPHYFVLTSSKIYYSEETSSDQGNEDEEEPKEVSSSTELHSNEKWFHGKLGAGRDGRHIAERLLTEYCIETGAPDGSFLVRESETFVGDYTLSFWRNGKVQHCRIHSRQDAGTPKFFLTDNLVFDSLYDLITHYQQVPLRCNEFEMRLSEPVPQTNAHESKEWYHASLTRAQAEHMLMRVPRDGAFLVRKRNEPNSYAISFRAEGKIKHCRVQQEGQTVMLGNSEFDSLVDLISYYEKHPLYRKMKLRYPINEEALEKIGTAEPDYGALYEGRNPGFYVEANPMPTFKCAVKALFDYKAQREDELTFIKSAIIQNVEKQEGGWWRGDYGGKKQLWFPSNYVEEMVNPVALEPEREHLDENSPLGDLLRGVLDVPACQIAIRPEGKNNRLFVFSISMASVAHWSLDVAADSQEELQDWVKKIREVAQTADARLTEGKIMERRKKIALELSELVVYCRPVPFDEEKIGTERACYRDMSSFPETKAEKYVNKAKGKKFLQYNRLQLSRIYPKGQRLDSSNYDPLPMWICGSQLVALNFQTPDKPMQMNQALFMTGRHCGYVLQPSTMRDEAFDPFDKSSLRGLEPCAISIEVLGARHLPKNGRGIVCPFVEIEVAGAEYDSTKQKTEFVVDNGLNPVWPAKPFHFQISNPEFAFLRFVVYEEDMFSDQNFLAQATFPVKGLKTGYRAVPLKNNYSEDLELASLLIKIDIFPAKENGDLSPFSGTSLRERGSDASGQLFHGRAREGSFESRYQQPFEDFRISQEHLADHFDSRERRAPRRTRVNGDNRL

T2: PLCγ1 nSH2-cSH2 Y771F,Y775F (545–790) phosphorylated on Y783 (human, UniProt P19174 545-790, Y771F | Y775F, phosphotyrosine at 783)
T2 construct: PLCγ1, tandem nSH2-cSH2 with the cSH2-SH3 linker, residues 545-790; residue numbering is for human PLCγ1; also called nSH2-cSH2^Y771F,Y775F,pY783; nSH2cSH2^pY783
T2 sequence (looked up): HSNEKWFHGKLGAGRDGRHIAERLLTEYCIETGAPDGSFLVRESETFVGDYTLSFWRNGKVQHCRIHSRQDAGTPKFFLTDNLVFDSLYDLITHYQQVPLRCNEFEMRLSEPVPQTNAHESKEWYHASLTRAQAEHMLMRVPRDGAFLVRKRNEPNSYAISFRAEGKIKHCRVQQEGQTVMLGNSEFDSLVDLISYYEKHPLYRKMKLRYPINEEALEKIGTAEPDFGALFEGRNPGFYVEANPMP

T3: PLCγ1 tandem nSH2-cSH2 domains, wild type (human, UniProt P19174 545-790)
T3 construct: PLCγ1 (phospholipase C gamma 1), tandem nSH2 and cSH2 domains with part of the cSH2-SH3 linker; residue numbering is for human PLCγ1; also called nSH2-cSH2^wt; nSH2cSH2^WT
T3 sequence: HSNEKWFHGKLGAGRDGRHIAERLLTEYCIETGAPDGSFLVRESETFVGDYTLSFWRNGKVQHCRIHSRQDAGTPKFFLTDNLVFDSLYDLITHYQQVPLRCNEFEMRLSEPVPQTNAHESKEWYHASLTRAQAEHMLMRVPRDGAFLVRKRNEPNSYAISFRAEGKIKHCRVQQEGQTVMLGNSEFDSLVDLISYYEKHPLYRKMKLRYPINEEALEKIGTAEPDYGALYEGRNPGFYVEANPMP


Columns and labels:
[1] = target: PLCγ1 PLC-core (residues 13−1215, Δ488–933, H335A) (human) (UniProt P19174); assay: ITC; cSH2 domain in the syringe, PLC-core in the cell
FGFR1 kinase domain = FGFR1 kinase domain (UniProt P11362); assay: ITC, two-site fit; details: reference: nonphosphorylated wild-type nSH2-cSH2; sites Y783
[2] = target: T1, PLCγ1 cSH2 domain, wild type (human); assay: NMR titration; 15N-labelled spPH, nSH2 or cSH2 domain observed by 1H-15N HSQC, unlabelled PLC-core (H335A) added up to 1:1; 25°C; for cSH2 then the phosphopeptide NPGFpYVEANPMP to 1:1:1
[3] = target: PLCγ1 specific array of domains (γSA), wild type (human); assay: ITC; FGFR1-1p in the syringe, PLCγ1 construct in the cell; corrected for heat of dilution; fit to a two-site model (nSH2-cSH2 constructs) or a one-site model (γSA)
[4] = target: T2, PLCγ1 nSH2-cSH2 Y771F,Y775F (545–790) …; assay: as above; details: both partners purified
[5] = target: T3, PLCγ1 tandem nSH2-cSH2 domains, wild …; assay: as above; details: both partners purified

Kd [1]	dH [1]	stoichiometry N [1]	Molecule	further results
49.5 µM	-1.43 kcal/mol	1.17	PLCγ1 cSH2 domain N728D (domain or fragment)	–
23.9 µM	0.587 kcal/mol	1.14	PLCγ1 cSH2 domain, wild type (domain or fragment)	–

Second part, the molecule before the results:

Molecule	Kd [1]	dH [1]	stoichiometry N [1]	further results
PLCγ1 nSH2-cSH2 tandem, 545-790 (from UniProt P19174) nSH2-cSH2 Y771F,Y775F phosphorylated at Y783	–	–	–	KD (FGFR1 kinase domain): weaker; reference 0.005 ± 0.001
PLCγ1 cSH2 domain S729Y (domain or fragment)	61.3 µM	-1.45 kcal/mol	1	–
PLCγ1 PLC-core (residues 13−1215, Δ488–933, H335A) (domain or fragment) GPGAPSDAEVLHLCRSLEVGTVMTLFYSKKSQRPERKTFQVKLETRQITWSRGADKIEGAIDIREIKEIRPGKTSRDFDRYQEDPAFRPDQSHCFVILYGMEFRLKTLSLQATSEDEVNMWIKGLTWLMEDTLQAPTPLQIERWLRKQFYSVDRNREDRISAKDLKNMLSQVNYRVPNMRFLRERLTDLEQRSGDITYGQFAQLYRSLMYSAQKTMDLPFLEASTLRAGERPELCRVSLPEFQQFLLDYQGELWAVDRLQVQEFMLSFLRDPLREIEEPYFFLDEFVTFLFSKENSVWNSQLDAVCPDTMNNPLSHYWISSSANTYLTGDQFSSESSLEAYARCLRMGCRCIELDCWDGPDGMPVIYHGHTLTTKIKFSDVLHTIKEHAFVASEYPVILSIEDHCSIAQQRNMAQYFKKVLGDTLLTKPVEISADGLPSPNQLKRKILIKHKKLAEGSAYEEVPTSMMYSENDISDARLTEGKIMERRKKIALELSELVVYCRPVPFDEEKIGTERACYRDMSSFPETKAEKYVNKAKGKKFLQYNRLQLSRIYPKGQRLDSSNYDPLPMWICGSQLVALNFQTPDKPMQMNQALFMTGRHCGYVLQPSTMRDEAFDPFDKSSLRGLEPCAISIEVLGARHLPKNGRGIVCPFVEIEVAGAEYDSTKQKTEFVVDNGLNPVWPAKPFHFQISNPEFAFLRFVVYEEDMFSDQNFLAQATFPVKGLKTGYRAVPLKNNYSEDLELASLLIKIDIFPAK	–	–	–	Kd [2]: 25 µM
FGFR1-1p kinase domain (pY766) (domain or fragment, UniProt P11362 458-774, looked up, phosphotyrosine at 766, fibroblast growth factor receptor 1 (FGFR1), kinase domain with the C-terminal tail holding pY766; see the Supplemental Experimental Procedures) AGVSEYELPEDPRWELPRDRLVLGKPLGEGCFGQVVLAEAIGLDKDKPNRVTKVAVKMLKSDATEKDLSDLISEMEMMKMIGKHKNIINLLGACTQDGPLYVIVEYASKGNLREYLQARRPPGLEYCYNPSHNPEEQLSSKDLVSCAYQVARGMEYLASKKCIHRDLAARNVLVTEDNVMKIADFGLARDIHHIDYYKKTTNGRLPVKWMAPEALFDRIYTHQSDVWSFGVLLWEIFTLGGSPYPGVPVEELFKLLKEGHRMDKPSNCTNELYMMMRDCWHAVPSQRPTFKQLVEDLDRIVALTSNQEYLDLSMPLD	–	–	–	Kd [3]: 0.185 µM; dH [3]: -7.09 kcal/mol; stoichiometry N [3]: 1.03; dH, first binding event [4]: -8.307 ± 0.025 kcal/mol; dH, second binding event [4]: 37.7 ± 5.13 kcal/mol; dH, first binding event [5]: -6.5 ± 0.183 kcal/mol; dH, second binding event [5]: 7.12 ± 0.23 kcal/mol
